Measurements published in patent US20230212244A1 (IMMATICS BIOTECHNOLOGIES, published 2023).

Biological target: T1, HLA-A*02:01 (human)
T1 construct: MHC class I monomer made peptide-receptive by UV cleavage of a UV-sensitive ligand; also called peptide-receptive MHC molecules
Assay: UV-ligand exchange ELISA (anti-β2m), peptide exchange yield grade
Excerpt: Candidate peptides for T cell based therapies according to the present invention were further tested for their MHC binding capacity (affinity). The individual peptide-MHC complexes were produced by UV-ligand exchange, where a UV-sensitive peptide is cleaved upon UV-irradiation, and exchanged with the peptide of interest as analyzed. Only peptide candidates that can effectively bind and stabilize the peptide-receptive MHC molecules prevent dissociation of the MHC complexes. To determine the yield of the exchange reaction, an ELISA was performed based on the detection of the light chain (β2m) of stabilized MHC complexes. The assay was performed as generally described in Rodenko et al. (Rodenko et al., 2006).
96 well MAXISorp plates (NUNC) were coated over night with 2ug/ml streptavidin in PBS at room temperature, washed 4× and blocked for1h at 37° C. in 2% BSA containing blocking buffer. Refolded HLA-A*02:01/MLA-001 monomers served as standards, covering the range of 15-500 ng/ml. Peptide-MHC monomers of the UV-exchange reaction were diluted 100 fold in blocking buffer. Samples were incubated for 1h at 37° C., washed four times, incubated with 2 ug/ml HRP conjugated anti-β2m for 1h at 37° C., washed again and detected with TMB solution that is stopped with […]. Absorption was measured at 450 nm. Candidate peptides that show a high exchange yield (preferably higher than 50%, most preferred higher than 75 %) are generally preferred for a generation and production of antibodies or fragments thereof, and/or T cell receptors or fragments thereof, as they show sufficient avidity to the MHC molecules and prevent dissociation of the MHC complexes.

peptide exchange yield	Binder
50 to 75%	YALDLSTFL [peptide YALDLSTFL (SEQ ID NO: 105)]
50 to 75%	RLLENMTEVV [peptide … (SEQ ID NO: 148)]
50 to 75%	LLADLKTMV [peptide LLADLKTMV (SEQ ID NO: 118)]
50 to 75%	SLVQRVETI (also called ECT2-001) [peptide SLVQRVETI (SEQ ID NO: 142)]
50 to 75%	RMYNKIFAI [peptide RMYNKIFAI (SEQ ID NO: 10)]
20 to 50%	LVYQFVHPI [peptide LVYQFVHPI (SEQ ID NO: 116)]
20 to 50%	TLQPVDNSTISL [peptide TLQPVDNSTISL (SEQ ID NO: 117)]
50 to 75%	RVLPPSALQSV [peptide RVLPPSALQSV (SEQ ID NO: 124)]
50 to 75%	LLGELPRLLLL [peptide LLGELPRLLLL (SEQ ID NO: 110)]
50 to 75%	RLAELTVDEFLA [peptide RLAELTVDEFLA (SEQ ID NO: 127)]
≥ 75%	KLGDFGLLVEL [peptide KLGDFGLLVEL (SEQ ID NO: 125)]
50 to 75%	SLISEKILL [peptide SLISEKILL (SEQ ID NO: 106)]
20 to 50%	KLLDVVHPA [peptide KLLDWHPA (SEQ ID NO: 131)]
50 to 75%	SLMGMVLKL [peptide SLMGMVLKL (SEQ ID NO: 122)]
20 to 50%	KLGQVLIYL [peptide KLGQVLIYL (SEQ ID NO: 112)]
50 to 75%	LLNDRIWLA [peptide LLNDRIWLA (SEQ ID NO: 144)]
50 to 75%	SLAPNIISQL [peptide SLAPNIISQL (SEQ ID NO: 121)]
50 to 75%	FLKNELDNV [peptide FLKNELDNV (SEQ ID NO: 161)]
50 to 75%	KQFEGTVEI [peptide KQFEGTVEI (SEQ ID NO: 138)]
50 to 75%	LLNEILEQV [peptide LLNEILEQV (SEQ ID NO: 140)]
20 to 50%	KTLERSYLL [peptide KTLERSYLL (SEQ ID NO: 123)]
50 to 75%	ALIKQLFEA (also called ZNF-002) [peptide ALIKQLFEA (SEQ ID NO: 1)]
50 to 75%	RLADLEALKV [peptide RLADLEALKV (SEQ ID NO: 150)]

peptide exchange yield	Binder
50 to 75%	LLLEVVKQV (also called LLLEVVKQV) [peptide LLLEWKQV (SEQ ID NO: 145)]
50 to 75%	KLLEFDQLQL [peptide KLLEFDQLQL (SEQ ID NO: 160)]
50 to 75%	LQLDKEFQL [peptide LQLDKEFQL (SEQ ID NO: 15)]
20 to 50%	KLLAVIHEL (also called RAD54B-002) [peptide KLLAVIHEL (SEQ ID NO: 152)]
50 to 75%	FLLAEDTKV [peptide FLLAEDTKV (SEQ ID NO: 13)]
50 to 75%	SLFDVSHML [peptide SLFDVSHML (SEQ ID NO: 115)]
20 to 50%	VLYEGVDEV [peptide VLYEGVDEV (SEQ ID NO: 120)]
50 to 75%	QLTEIKPLL [peptide QLTEIKPLL (SEQ ID NO: 137)]
50 to 75%	TLAKYLMEL [peptide TLAKYLMEL (SEQ ID NO: 126)]
50 to 75%	ILFSEDSTKLFV [peptide ILFSEDSTKLFV (SEQ ID NO: 153)]
20 to 50%	FLDKPEDVLL [peptide FLDKPEDVLL (SEQ ID NO: 14)]
20 to 50%	VLVDDDGIKVV [peptide … (SEQ ID NO: 159)]
20 to 50%	ALSDETWGL [peptide ALSDETWGL (SEQ ID NO: 146)]
20 to 50%	RTFEKIEEV [peptide RTFEKIEEV (SEQ ID NO: 133)]
50 to 75%	ALLNAILHSA [peptide ALLNAILHSA (SEQ ID NO: 132)]
20 to 50%	ALDGDQMEL [peptide ALDGDQMEL (SEQ ID NO: 109)]
50 to 75%	ALVQGILERV [peptide ALVQGILERV (SEQ ID NO: 12)]
50 to 75%	KLSDVWKEL [peptide KLSDVWKEL (SEQ ID NO: 143)]
50 to 75%	KLPSETIFVGC [peptide KLPSETIFVGC (SEQ ID NO: 154)]
50 to 75%	ILLTIKDDTIYL [peptide ILLTIKDDTIYL (SEQ ID NO: 104)]
50 to 75%	KLMDYIDEL [peptide KLMDYIDEL (SEQ ID NO: 162)]
20 to 50%	ILYDLQQNL [peptide ILYDLQQNL (SEQ ID NO: 113)]
≥ 75%	KMLDEILLQL [peptide KMLDEILLQL (SEQ ID NO: 164)]

peptide exchange yield	Binder
20 to 50%	ILYQTVTGL [peptide ILYQTVTGL (SEQ ID NO: 119)]
50 to 75%	RLLHEVQEL [peptide RLLHEVQEL (SEQ ID NO: 163)]
50 to 75%	SLAELVPGVGGI [peptide SLAELVPGVGGI (SEQ ID NO: 108)]
50 to 75%	YLFEKTFNM [peptide YLFEKTFNM (SEQ ID NO: 11)]
50 to 75%	SLIERDLKL [peptide SLIERDLKL (SEQ ID NO: 157)]
50 to 75%	RLLGEEVVRV (also called RLLGEEVVRV) [peptide … (SEQ ID NO: 155)]
≥ 75%	GVAGGSILKGV [peptide GVAGGSILKGV (SEQ ID NO: 134)]
20 to 50%	GLGGSQLIDTHL [peptide GLGGSQLIDTHL (SEQ ID NO: 130)]
≥ 75%	AVIEHLERL [peptide AVIEHLERL (SEQ ID NO: 141)]
50 to 75%	SAQGSDVSLTACKV [peptide SAQGSDVSLTACKV (SEQ ID NO: 151)]
20 to 50%	KLQEEIPVL [peptide KLQEEIPVL (SEQ ID NO: 135)]
50 to 75%	VLIDVLKEL [peptide VLIDVLKEL (SEQ ID NO: 129)]
50 to 75%	VLLNEILEQV [peptide VLLNEILEQV (SEQ ID NO: 139)]
50 to 75%	ALLGGGPYML [peptide ALLGGGPYML (SEQ ID NO: 107)]
50 to 75%	YQFDKVGILTL [peptide YQFDKVGILTL (SEQ ID NO: 149)]
50 to 75%	KLFDIFSQQV [peptide KLFDIFSQQV (SEQ ID NO: 136)]
20 to 50%	MLDDRAYLV [peptide MLDDRAYLV (SEQ ID NO: 128)]
50 to 75%	GLLDPSVFHV [peptide GLLDPSVFHV (SEQ ID NO: 158)]
≥ 75%	SLMMTIINL [peptide SLMMTIINL (SEQ ID NO: 156)]
10 to 20%	TAVGHALVL [peptide TAVGHALVL (SEQ ID NO: 114)]
≥ 75%	TLTELRAFL [peptide TLTELRAFL (SEQ ID NO: 147)]
